Entries after “also recorded” stand apart in the source; their conditions may differ. Like-named read-outs stand apart in the source and are kept apart here.

The values that follow come from patent publication US8148119B2, “Hydroxylase gene and use thereof” (Microbiopharm Japan Co., Ltd., priority 2006, dated 2012).

The conditions of data set [1]: cited from earlier work.
The conditions of data set [2]: cited from earlier work. The source holds these as a separate data set.
A further data set has as its target T1, VDH (Pseudonocardia autotrophica, UniProt C4B644).
T1 construct: there was no mutation of the VDH gene and the VDH gene was inserted in the designated site; made in house; host or cells: Escherichia coli BL21(DE3), cell-free extract
T1 sequence (C4B644 2-403): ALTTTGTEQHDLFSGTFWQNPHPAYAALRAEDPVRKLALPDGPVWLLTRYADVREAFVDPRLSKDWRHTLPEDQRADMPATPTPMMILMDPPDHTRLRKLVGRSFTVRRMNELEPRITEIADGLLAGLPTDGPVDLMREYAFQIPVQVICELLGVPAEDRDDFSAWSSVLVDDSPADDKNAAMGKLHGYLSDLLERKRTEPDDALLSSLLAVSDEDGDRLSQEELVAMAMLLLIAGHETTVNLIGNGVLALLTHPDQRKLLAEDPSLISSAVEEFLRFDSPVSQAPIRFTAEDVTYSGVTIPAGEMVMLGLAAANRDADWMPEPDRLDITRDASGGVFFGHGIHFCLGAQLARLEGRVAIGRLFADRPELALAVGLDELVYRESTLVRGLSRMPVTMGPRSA
The data set is described as follows: Reduced-CO difference spectral analysis, VDH expression in Escherichia coli BL21(DE3) transformants. As to the method: First, the cell suspension obtained by the method previously described was subjected to cell disruption at 4° C. using 0.1 mm glass beads by a cell disruptor, Multi-beads shocker (manufactured by Yasui Kikai Corporation). In the cell disruption, ten cycles of 30-second shaking at 2500 rpm and a 30-second break were conducted. The cell-disrupted solution was centrifuged at 12000 rpm for 10 minutes to thereby obtain a cell-free extract. 700 μl of the cell-free extract was transferred into each of two test tubes with caps and carbon monoxide was purged into one of the tubes. Then, a small amount of sodium hydrosulfite was added to the cell-free extract in both of the tubes. Taking the absorption spectrum at from 400 nm to 500 nm of the sample without the purge of carbon monoxide as the baseline level, the absorption spectrum at from 400 to 500 nm of the sample purged with carbon monoxide was scanned using a spectrophotometer (U-3210 SpectrophotoMeter manufactured by HITACHI, Ltd.).
First, the cell suspension of transformed Escherichia coli BL21(DE3)/pVDH-thcCD obtained by the method previously described was subjected to cell disruption at 4° C. using 0.1 mm glass beads by a cell disruptor, Multi-beads shocker (manufactured by Yasui Kikai Corporation). In the cell disruption, ten cycles of 30-second shaking at 2500 rpm and a 30-second break were conducted. […]

Data set [3] is described as follows: VD3 conversion in reconstituted system (cell-free extract or purified VDH plus redox partner). The format is biochemical.

B1: Human CYP27A1: human cytochrome P450 known to have hydroxylation activity at 25-position of vitamin D3 (protein, UniProt Q02318 34-531, looked up)
Sterol 26-hydroxylase, …: ALPSDKATGAPGAGPGVRRRQRSLEEIPRLGQLRFFFQLFVQGYALQLHQLQVLYKAKYGPMWMSYLGPQMHVNLASAPLLEQVMRQEGKYPVRNDMELWKEHRDQHDLTYGPFTTEGHHWYQLRQALNQRLLKPAEAALYTDAFNEVIDDFMTRLDQLRAESASGNQVSDMAQLFYYFALEAICYILFEKRIGCLQRSIPEDTVTFVRSIGLMFQNSLYATFLPKWTRPVLPFWKRYLDGWNAIFSFGKKLIDEKLEDMEAQLQAAGPDGIQVSGYLHFLLASGQLSPREAMGSLPELLMAGVDTTSNTLTWALYHLSKDPEIQEALHEEVVGVVPAGQVPQHKDFAHMPLLKAVLKETLRLYPVVPTNSRIIEKEIEVDGFLFPKNTQFVFCHYVVSRDPTAFSEPESFQPHRWLRNSQPATPRIQHPFGSVPFGYGVRACLGRRIAELEMQLLLARLIQKYKVVLAPETGELKSVARIVLVPNKKVGLQFLQRQC
Turning to B1, the Km – broadly, the concentration of substrate that gives half-maximal velocity – was 3.2 µM in data set [1] (literature values (Sawada et al. 2004), read-out: Km for VD3) and 3.5 µM in data set [2] (literature values (Sawada et al.; Uchida et al.), read-out: Km for 25-OH VD3). Besides, in data set [1] (literature values), the “Vmax for VD3” value is 270 mmol/min/mol of P450. In data set [2] (literature values), the “Vmax for 25-OH VD3” value is on record as 21 mmol/min/mol of P450.

B2: P450SU-1: cytochrome P450 derived from actinomycete Streptomyces griseolus ATCC 11796, reported to hydroxylate vitamin D3 (protein, UniProt P18326 2-406, looked up)
Vitamin D3 dihydroxylase: TDTATTPQTTDAPAFPSNRSCPYQLPDGYAQLRDTPGPLHRVTLYDGRQAWVVTKHEAARKLLGDPRLSSNRTDDNFPATSPRFEAVRESPQAFIGLDPPEHGTRRRMTISEFTVKRIKGMRPEVEEVVHGFLDEMLAAGPTADLVSQFALPVPSMVICRLLGVPYADHEFFQDASKRLVQSTDAQSALTARNDLAGYLDGLITQFQTEPGAGLVGALVADQLANGEIDREELISTAMLLLIAGHETTASMTSLSVITLLDHPEQYAALRADRSLVPGAVEELLRYLAIADIAGGRVATADIEVEGHLIRAGEGVIVVNSIANRDGTVYEDPDALDIHRSARHHLAFGFGVHQCLGQNLARLELEVILNALMDRVPTLRLAVPVEQLVLRPGTTIQGVNELPVTW
With B2, in data set [1] (reported by Sawada et al. 2004), the “Hydroxylation of vitamin D3 to 25-hydroxy vitamin D3 and of 25-hydroxy vitamin D3 to 1α,25-hydroxy vitamin D3” value is recorded as “weak activity”.

B3: VDH: hydroxylase of vitamin D or the like from Pseudonocardia autotrophica, cytochrome P450, amino acid sequence ID No. 2 (protein, listed as Pseudonocardia autotrophica)
chain: MALTTTGTEQHDLFSGTFWQNPHPAYAALRAEDPVRKLALPDGPVWLLTRYADVREAFVDPRLSKDWRHTLPEDQRADMPATPTPMMILMDPPDHTRLRKLVGRSFTVRRMNELEPRITEIADGLLAGLPTDGPVDLMREYAFQIPVQVICELLGVPAEDRDDFSAWSSVLVDDSPADDKNAAMGKLHGYLSDLLERKRTEPDDALLSSLLAVSDEDGDRLSQEELVAMAMLLLIAGHETTVNLIGNGVLALLTHPDQRKLLAEDPSLISSAVEEFLRFDSPVSQAPIRFTAEDVTYSGVTIPAGEMVMLGLAAANRDADWMPEPDRLDITRDASGGVFFGHGIHFCLGAQLARLEGRVAIGRLFADRPELALAVGLDELVYRESTLVRGLSRMPVTMGPRSA
As to B3, the “Estimated concentration of VDH per culture” value with VDH (Escherichia coli BL21(DE3)/pVDH-camAB) was 113 nM. In the data set with VDH (Escherichia coli BL21(DE3)/pVDH-thcCD), the “VDH expression per culture fluid” value is 258 nM. In data set [3] (ferredoxin and ferredoxin reductase derived from spinach, 10 μM VD3, 30° C.), the “Hydroxides of VD3 detected by HPLC” value was “a reaction proceeds; also recorded: converting VD3 to HVD, DHVD and THVD”. In data set [3] (redox partner derived from Pseudomonas putida), the “Reaction in reconstituted system with putidaredoxin and putidaredoxin reductase” value was “electron transfer reaction did not proceed”.
